Laboratory results reported in US11780927B2, “Anti-CD40 antibodies for use in prevention of graft rejection” (NOVARTIS AG, priority 2018, dated 2023).
“And” between values parts separate entries of the source, which are not always exact repeats. Equal entries are not always repeated. One block for each molecule: values may come before it.

Columns and labels:
[1] = test system: transplanted kidney grafts; test: Allograft biopsies scored by Chronic Allograft Damage Index (CADI); format: in vivo, human; details: final biopsy
Text: The quality of the graft was estimated using the Chronic Allograph Damage Index (CADI) (Isoniemi et al. 1992 and 1994), where scores of ≤1 reflects normal renal histology and higher scores correlate with poor long-term outcome (Hayry et al. 2004, Yilmaz et al. 2007, Yilmaz et al. 2003). Pristine renal histology was found in 3 of 5 patients on iscalimab (60%) and in none of the 7 treated with tacrolimus (0%). The average CADI was 1.60±0.60 for CFZ533 (n=5) vs. 5.14±0.80 for tacrolimus (n=7), (mean±SEM, p<0.01 using Student t)
A PoC Study in de Novo Renal Transplantation (CCFZ533X2101/NCT02217410) using CFZ533 was performed. […] Allograft biopsies were performed on a subset of study patients. A pathologist, blinded to therapy, reviewed and scored all biopsy slides using the established Banff criteria and calculated the chronic allograft damage index (CADI, Nickerson P et al., Legendre C et al., Seron D et al.,). A CADI of 1 or less was considered as ‘normal renal histology’. Two patients were excluded from the analysis, since they switched therapy after only 2 months. […] The average CADI at final biopsy was 1.6±0.6 for CFZ533 and 5.1±0.8 for tacrolimus, p<0.01.

recombinant human CD40 = recombinant human CD40 (Homo sapiens, UniProt P25942); test: Surface plasmon resonance analysis of affinity for CD40; format: binding; details: SPR, 25° C.
recombinant human CD40, sequence (P25942 21-277): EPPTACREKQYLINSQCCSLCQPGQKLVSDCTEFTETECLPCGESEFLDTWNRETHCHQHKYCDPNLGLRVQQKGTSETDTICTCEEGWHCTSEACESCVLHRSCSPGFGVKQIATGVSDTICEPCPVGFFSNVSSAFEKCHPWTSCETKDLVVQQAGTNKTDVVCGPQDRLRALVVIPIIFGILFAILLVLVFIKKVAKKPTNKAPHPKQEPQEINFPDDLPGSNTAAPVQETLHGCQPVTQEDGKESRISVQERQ
Experimental: The binding analyses of recombinant CFZ533 were performed at 25° C. with HBS−EP+ as running buffer. A typical binding analysis cycle consisted of three steps: (i) capture of the antibody via ProteinA immobilized on the chip surface, (ii) binding of CD40 antigen to the captured anti-CD40 antibody, and (iii) regeneration of the ProteinA surface. To determine the kinetic rate constants of the antigen-antibody binding interactions, binding data were processed, double referenced with responses from blank injections. The binding curves were fitted locally using the 1:1 interaction model of the Biacore T100 Evaluation software to determine kinetic rate constants. The value for the equilibrium dissociation constant (KD) was calculated as the ratio of the rate constants kd/ka. All binding measurements were performed in two independent experiments.

CD20pos B cells = test: In vitro B cell depletion in human whole blood; format: cell-based; details: 72 hours; Rituximab 50 μg/ml, CFZ533 dose titration
Experimental: See supplementary material for detailed methods. Briefly, the ability of CFZ533 to mediated depletion of CD20^pos B cells was monitored in human whole blood over a period of three days in comparison to the B cell depleting antibody Rituximab. For CDC, CFZ533 or Rituximab were incubated with RAJI B cells in the presence or absence of rabbit complement and cell lysis was assessed by luminescence.
B cells numbers were determined based on CD45pos and CD19pos events falling within lymphocyte FSC (forward-scattered light)/SSC (side-scattered light) gate. Results for individual antibody concentrations were calculated as percent remaining B cells with reference to untreated samples and graphed as a function of log-transformed antibody concentration (adjusted to 100% and shown as a dotted line). Data represent the mean and SD of eight independent donors. […] Concentration dependent killing of the Raji cells was analyzed after 2 hours, where the viability of the cells was measured by determination of the ATP concentration in each well using luciferase. Results are presented as isotype-control normalized relative luciferase units (RLU) as a function of log-transformed antibody concentration.

human B cell line RI-1 = test: Internalization by image flow cytometry; format: cell-based; details: 3 hours at 37° C.
Experimental: Internalization of fluorescently tagged CFZ533 and rCD154 was assessed in vitro using the human B cell line RI-1 (Th'ng et al, 1987). CD40 dependence of CFZ533 internalization was assessed using a CD40 knockout RI-1 cell line. Internalization was assessed using an Amnis® image flow cytometer (Merck KHaA, Darnstadt) according to the manufacturer's instructions and data analyzed using ImageStream®^X software.
FIG. 8B. Relative internalization erode of CFZ533 and rCD154 under permissive conditions (non-permissive erode values subtracted). Each dot represents data from an individual experiment and the population mean is indicated as a horizontal red line. FIG. 8C. Representative images of individual CD40 expressing or CD40 knock-out RI-1 cells cultured with Alexa488 labeled CFZ533 for 3 hours at 37° C. In all experiments, cells were co-stained with AlexaFlour 647 labeled CD45 to demark the cell membrane.

Molecule: C=CC[C@@H]1/C=C(\C)C[C@H](C)C[C@H](OC)[C@H]2O[C@@](O)(C(=O)C(=O)N3CCCC[C@H]3C(=O)O[C@H](/C(C)=C/[C@@H]3CC[C@@H](O)[C@H](OC)C3)[C@H](C)[C@@H](O)CC1=O)[C@H](C)C[C@@H]2OC [tacrolimus, reference compound]
- average CADI (mean±SEM) [1]: 5.14±0.80 and 5.1±0.8

- ka [1/Ms] (recombinant human CD40): 2.84 ± 0.67 × 10^5 1/Ms
- kd [1/s] (recombinant human CD40): 1.26 ± 0.03 × 10^−4 1/s
Molecule: HCD122: parental antibody, wild-type IgG1 version of CFZ533 [reference compound]

Molecule: Rituximab: depleting anti-CD20 antibody [reference compound]
- B cells eliminated in human whole blood (CD20pos B cells): approximately 80%

B1: rCD154: recombinant human CD154, the CD40 ligand (protein)
chain: MQKGDQNPQIAAHVISEASSKTTSVLQWAEKGYYTMSNNLVTLENGKQLTVKRQGLYYIYAQVTFCSNREASSQAPFIASLCLKSPGRFERILLRAANTHSSAKPCGQQSIHLGGVFELQPGASVFVNVTDPSQVSHGTGFTSFGLLKL
- Internalization by RI-1 B cells (human B cell line RI-1): internalized
